The nanobody polyreactivity screen of Harvey et al. (2022)

Assay: yeast display, Sf9 membrane polyspecificity reagent, FACS + sequencing; frameworks hold sequencing errors
How it was run: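 Using colony PCR, genes from sorted yeast display clones were amplified, then sequenced on MiSeq at 2 × 250 and filtered by CDR length. The clones had been stained with 10% biotinylated, detergent-solubilized Sf9 membrane reagent for 1 hour at 4 °C and sorted by FACS into low and high (top ~1%) gates on anti-HA and streptavidin fluorescence. Polyreactivity labels come from the gate of origin.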

QVQLVESGGGLVQAGGSLRLSCAASGSIFSYYAMGWYRQAPGKERELVAAISSRGGSTYYADSVKGRFTISRDNAKKTVYLQMNSLKPEDTAVYYCAADWTSWFGVTYDYWGQGTQVTVSS
polyreactivity (PSR sort gate): high polyreactivity

QVQLVESGGGLVQAGGSLRLSCAASGSIFSYYAMGWYRQAPGKERELVAAISWSGTSTYYADSVKGRFTISRDNAKNTVYLQMNSLKPEDTAVYYCNAGDNPIFDLGQGTQVTVSS
polyreactivity (PSR sort gate): high polyreactivity

QVQLVESGGGLVQAGGSLRLSCAASGSIFSYYAMGWYRQAPGKERELVAGISISTGSTYYADSVKGRFTISRDNAKNTVYLQMNSLKPEDNAVYYCAAAQDDGYSQDIYYQLSAYDYWGQGTQVTVSS
polyreactivity (PSR sort gate): low polyreactivity

QVQLVESGGGLVQAGGSLRLSCAASGSIFSYYAMGWYRQAPGKERELVASITSGGSTNYADSVKGRFTISRDNAKNTVYLQMNSLKPEDTAVYYCNKDGKYHRVLYDYWGQGTQVTVSS
polyreactivity (PSR sort gate): low polyreactivity

QVQLVESGGGLVQAGGSLRLSCAASGSIFSYYAMGWYRQAPGKERELVAVISSSGGRTYYADSVKGRFTISRDNAKNTVYLQMNSLKPEDTAVYYCAAKYRVFYGFDYWGQGTQVTVSS
polyreactivity (PSR sort gate): high polyreactivity

QVQLVESGGGLVQAGGSLRLSCAASGSIFSYYDMGWYRQAPGKERELVAGISRGGSTNYADSVKGRFTISRDNAKNTVYLQMNSLKPEDTAVYYCNADQSSRTYPFRRSRRSWLYGYWGQGTQVTVSS
polyreactivity (PSR sort gate): low polyreactivity

QVQLVESGGGLVQAGGSLRLSCAASGSIFSYYVKGWYRQAPGKERELVAVITDRGGRTYYADSVKGRFTISRDNAKNPVYLQMNSLKPEDTAVYYCNKYIRRYLIYGSWGQGTQVTVSS
polyreactivity (PSR sort gate): high polyreactivity

QVQLVESGGGLVQAGGSLRLSCAASGSIFTAYAMGWYRQAPGKERELVAAIDDSGDSTYYADSVKGRFTISRDNAKNTVYLQMNSLKPEDTAVYYCKAEYRVNKEYDYWGQGTQVTVSS
polyreactivity (PSR sort gate): low polyreactivity

QVQLVESGGGLVQAGGSLRLSCAASGSIFTDNAMGWYRQAPGKERELVAGISYNGDNTYYADSVKGRFTISRDNAKNTVYLQMNSLKPEDTAVYYCAAADGIIESDYWGQGTQVTVSS
polyreactivity (PSR sort gate): low polyreactivity

QVQLVESGGGLVQAGGSLRLSCAASGSIFTFNAMGWYRQAPGKERELVAAISTGGNTYYADSVKGRFTISRDNAKNTVYLQINSLKPEDTAVFYCAAVRRTDGDGKYYYWGQGTQVTVSS
polyreactivity (PSR sort gate): high polyreactivity

QVQLVESGGGLVQAGGSLRLSCAASGSIFTFYAMGWYRQAPGKERELVAAISSGGRTYYADSVKGRFTISRDNAKNTVYLQMNSLKPEDTAVYYCAASYQQYFYRYALPADYYYWGQGTQVTVSS
polyreactivity (PSR sort gate): high polyreactivity

QVQLVESGGGLVQAGGSLRLSCAASGSIFTFYAMGWYRQAPGKERELVATINRIGGNTYYADSVKGRFTISRDNAKNSVYLLMKSLKPEETAVYYCAVCPYTRPYYRTFDHWGQGTLVTVSS
polyreactivity (PSR sort gate): low polyreactivity

QVQLVESGGGLVQAGGSLRLSCAASGSIFTFYAMGWYRQAPGKERELVATINRIGGNTYYADSVKGRFTISRDNAKNTVYFQMNSLKPEDTAVYYCAADRSAWGSNWETQFDYWGQGTQVTVSS
polyreactivity (PSR sort gate): low polyreactivity

QVQLVESGGGLVQAGGSLRLSCAASGSIFTFYTMGWYRQAPGKERELVAAINWSGSRTYYADSVKGRFTISRDNAKNTVYLQMNSLIQEDTAVYYCNVRCYYKRRYGWYSYRYGYWGQGTQVTVSS
polyreactivity (PSR sort gate): high polyreactivity

QVQLVESGGGLVQAGGSLRLSCAASGSIFTGYAMGWYRQAPGKERELVAAISYSTGRTYYADSVKGRFTISRDNAKNTVYLQMNSLKPEDTAVYYCAARYREQYDYWGQGTQVTVSS
polyreactivity (PSR sort gate): low polyreactivity

QVQLVESGGGLVQAGGSLRLSCAASGSIFTGYDMGWYRQAPGKERELVAVISTAGRTYYADSVKGRFTISRDNAKNTVYLQMNSLKPEDTAVYYCAKRSYSKDQPRYGYWGQGTQVTVSS
polyreactivity (PSR sort gate): low polyreactivity

QVQLVESGGGLVQAGGSLRLSCAASGSIFTIYAMGWYRQAPGKERELVAAISFSGGSTYYADSVKGRFTISRDNAKNTVYLQMNSLKPEDTAVYYCAADGGFTYDNWGQGTQVTVSS
polyreactivity (PSR sort gate): low polyreactivity

QVQLVESGGGLVQAGGSLRLSCAASGSIFTIYAMGWYRQAPGKERELVATITGGGGSTYYADSVKGRFTISRDNAKNTVYLQMNSLKPEDTAVYYCATDFRRTRSYGNSRSYGYWGQGTQVTVSS
polyreactivity (PSR sort gate): low polyreactivity

QVQLVESGGGLVQAGGSLRLSCAASGSIFTKYAMGWYRPAPGKERELVAAISYSGGTRTYYADSVKGRFTSSRDNAKNTVYLQMNSLKPEDTAVYYCAARRYTRRANPAYPYEYWGQGTQVTVSS
polyreactivity (PSR sort gate): high polyreactivity

QVQLVESGGGLVQAGGSLRLSCAASGSIFTKYAMGWYRQAPGKEREFVAAITLSGGSTYYADSVKGRFTIGRDNAKNTVYLQMNSLKPEDTAVYYCNAAYTYVTAWYYYWGQGTQVTVSS
polyreactivity (PSR sort gate): high polyreactivity

QVQLVESGGGLVQAGGSLRLSCAASGSIFTLYAMGSYRQAPGKERELVAAITWSGGSTYYADSVKGRFTISRDNAKNTVYLQMNSLKPEDTAVYYCAKDYLAGGPWEGHVEREYDYWGQGTQVTVSS
polyreactivity (PSR sort gate): low polyreactivity

QVQLVESGGGLVQAGGSLRLSCAASGSIFTLYAMGWYRQAPGKETELVAVISSSGGRTYYADSVKGRFTISRDNAKNTVYLQMNSLKPEDTAVYYGAARGYGATYDYWGQGTQVTVSS
polyreactivity (PSR sort gate): high polyreactivity

QVQLVESGGGLVQAGGSLRLSCAASGSIFTNAMGWYRQAPGKERELVAAISSTGGSTYYADSVKGRFTISRDNAKNTVYLQMYSLKPEDTAVYYCAADHYGGRDYWGQGTQLTVSS
polyreactivity (PSR sort gate): low polyreactivity

QVQLVESGGGLVQAGGSLRLSCAASGSIFTNNAMGWYRHAPGKERELVAAISRGGSTYYADSVKGRFTISRDIAKNTDFIQMNSLIPEDTAVYYCNARRYRHDGYWGQGTQVTVSS
polyreactivity (PSR sort gate): high polyreactivity

QVQLVESGGGLVQAGGSLRLSCAASGSIFTNNAMGWYRQAPGKERELVAGINISGDSTYYADSVKGRFTISRDNAKNTVYLQMNSLKPEDTAVYYCAAGDGYAGIYDYWGQGTQVTVSS
polyreactivity (PSR sort gate): low polyreactivity

QVQLVESGGGLVQAGGSLRLSCAASGSIFTPNVKGRYRQAPGKERELVAAISQSGGSTFYADSVKGRFSFSRDNAKKTVYLQMNSLKPEDTAVYYCASEYYGPVYDLDFDYWGQGTQVTVSS
polyreactivity (PSR sort gate): low polyreactivity

QVQLVESGGGLVQAGGSLRLSCAASGSIFTPNVMGWYRHAPGKERELVAAISQSGGSTFYADSVKGRFTISRDNAKNTVYLQMNSLKPEDTAVYYCNVDDNSEYDYWGQGSQVTVSS
polyreactivity (PSR sort gate): low polyreactivity

QVQLVESGGGLVQAGGSLRLSCAASGSIFTPNVMGWYRQEPGKERELVAAISQRGGSTYYADSVKGRFTLSRDNAKNTVYLQMNSLKPEDTAVYYCNKDNAVDRLPWFQVTYDYWGQGTQVTVSS
polyreactivity (PSR sort gate): low polyreactivity

QVQLVESGGGLVQAGGSLRLSCAASGSIFTPYAMGWYRQAPGKERELVAAITYSGGSTYYADSVKGRFTISRDNAKNTVYLLMNSLKPEDTAVYYCAAYFNIYGLEYDYWGQGTQVTVSS
polyreactivity (PSR sort gate): high polyreactivity

QVQLVESGGGLVQAGGSLRLSCAASGSIFTPYAMGWYRQAPGKERELVADIDASGGGTYADSVKGRFTISRDNAKNTVYLQMNSLKPEDTAVFYCNADTGIWDYRFVDRDYWGQGTQVTVSS
polyreactivity (PSR sort gate): low polyreactivity

QVQLVESGGGLVQAGGSLRLSCAASGSIFTQYAMGWYRQAPGKERELVAAISWRGGRTYYADSVKGRFTISRDNAKNTVYLQMNSLKPEDTAVYYCNRVYGAHHYYYGIGTYDYWGQGTQVTVSS
polyreactivity (PSR sort gate): high polyreactivity

QVQLVESGGGLVQAGGSLRLSCAASGSIFTRNAMGWYRQAPGKERELVATIRKNGASTTYADSVKGRFTISRDNAKNTVYLQMNSLKQEDTAVYYCARDHHTKYNYWGQGTQVTVSS
polyreactivity (PSR sort gate): low polyreactivity

QVQLVESGGGLVQAGGSLRLSCAASGSIFTRYAMGWYRQAPGKEREFVAAITTRGGSTYYADSVKGRFTISRDNAKNTVYLQMNSLKPEDTAVYYCNTRGKSGLWWYNYWGQGTQVTVSS
polyreactivity (PSR sort gate): high polyreactivity

QVQLVESGGGLVQAGGSLRLSCAASGSIFTRYAMGWYRQAPGKERELVAAISQSGGNTYYADSVKGRFTISRDNAKNTVYLQMNSLKPEDTAVYYCAARWPWTHTRGYWGQGTQVTVSS
polyreactivity (PSR sort gate): high polyreactivity

QVQLVESGGGLVQAGGSLRLSCAASGSIFTRYAMGWYRQAPGKERELVAAISWIGTRTYYADSVKGRFTISRDNAKNTVYLQMNSLKPEDTAVYYCNAVSKVERYSYPHGRPFEYWGQGTQVTVSS
polyreactivity (PSR sort gate): high polyreactivity

QVQLVESGGGLVQAGGSLRLSCAASGSIFTSNAMGWYRQAPGKERELVAAITSDGAITYADSVKGRFTISRDNAKNTVYLQMNSLKPEDTAVYYCATEIEYYVGSVADMGYWGQGTQVTVSS
polyreactivity (PSR sort gate): low polyreactivity

QVQLVESGGGLVQAGGSLRLSCAASGSIFTSYAMGWYRQAPGKERELVAAISRSGARTYYADSVKGRFTISRDNAKNTVYLLMNCLKPEDTAVYYCAAVHWRTTGGYDYWGQGTQVTVSS
polyreactivity (PSR sort gate): high polyreactivity

QVQLVESGGGLVQAGGSLRLSCAASGSIFTSYAMGWYRQAPGKERELVAAISSSGSTYYADSVKGRFTISRDNAKNTVYLQMNSLKPEDTAVYYCNADSRTAGLNSEYDYWGQGTQVTVSS
polyreactivity (PSR sort gate): low polyreactivity

QVQLVESGGGLVQAGGSLRLSCAASGSIFTTNTMGWYRQAPGKERELVAAISSGGGTHYADSVKGRFTISRDNAKNTVYLQMNSLKPEDTAVYYCDARSYYYEWFGDVAMYYWGQGTQVTVSS
polyreactivity (PSR sort gate): low polyreactivity

QVQLVESGGGLVQAGGSLRLSCAASGSIFTTYAMGWYRQAPGKERELVAAISRAGDTTYADSVKGRFTISRDNAKNTVYLQRNSLKPEDTAVYYWGQGTQVTVSS
polyreactivity (PSR sort gate): low polyreactivity

QVQLVESGGGLVQAGGSLRLSCAASGSIFTVNAMGWYRQAPGKERELVAAITFGGGRTYYADSVKGRFTISRDNAKNTVYLQMNSLKPEDTSVYYCAVSRKGLGSVEYWGQGTQVTVSS
polyreactivity (PSR sort gate): low polyreactivity

QVQLVESGGGLVQAGGSLRLSCAASGSIFTVYAMGWYRQAPGKERELVAAITRNGGRTYYADSVKGRFTISRDNAKNTVYLQMNSLKPEDTAVYYCAAPGLYSRLDYWGQGTQVTVSS
polyreactivity (PSR sort gate): high polyreactivity

QVQLVESGGGLVQAGGSLRLSCAASGSIFTVYAMGWYRQAPGKERELVATITTGGSTNYADSVKGRFTISRDNAKTTVYLQMNSLKPEDTAVYYCAATYWSWISLRFYWGQGTQVTVSS
polyreactivity (PSR sort gate): low polyreactivity
